Source: PMC8395052

Target: T1, human estrogen receptor-alpha (ERα) fused at its N-terminus with NanoLuc luciferase (Nluc-ERα) or HaloTag (HT-ERα) (human), P03372
T1 chain: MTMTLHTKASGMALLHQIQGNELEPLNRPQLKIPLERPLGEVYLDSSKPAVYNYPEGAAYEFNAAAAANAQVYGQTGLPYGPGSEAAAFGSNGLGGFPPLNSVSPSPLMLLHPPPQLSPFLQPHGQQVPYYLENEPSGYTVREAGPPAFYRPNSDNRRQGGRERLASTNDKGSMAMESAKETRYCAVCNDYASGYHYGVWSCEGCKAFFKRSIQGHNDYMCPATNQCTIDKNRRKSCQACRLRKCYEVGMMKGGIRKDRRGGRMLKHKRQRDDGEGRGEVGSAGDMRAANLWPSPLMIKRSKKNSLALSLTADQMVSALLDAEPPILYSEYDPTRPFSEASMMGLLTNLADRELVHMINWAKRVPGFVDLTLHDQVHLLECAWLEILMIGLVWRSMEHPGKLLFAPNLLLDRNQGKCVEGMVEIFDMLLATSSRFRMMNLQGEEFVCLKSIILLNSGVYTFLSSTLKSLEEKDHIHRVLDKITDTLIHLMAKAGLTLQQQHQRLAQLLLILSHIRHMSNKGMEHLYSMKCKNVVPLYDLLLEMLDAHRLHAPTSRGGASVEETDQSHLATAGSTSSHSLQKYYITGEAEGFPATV
Test: FRET or BRET; NanoBRET in living HEK293 cells co-transfected with Nluc-ERα (donor) and HT-ERα (acceptor), 1:1; HaloTag NanoBRET 618 ligand; cells treated 24 h with E2, 17α-estradiol, diethylhexyl phthalate, bisphenol A or 4-nonylphenol; fold induction of the corrected BRET unit (618 nm/460 nm) over the vehicle control (0.1% DMSO)
Settings: remark: other sources report otherwise

fold induction of the BRET signal over vehicle control, with 4-nonylphenol: 2.3 fold
fold induction of the BRET signal over vehicle control, with 17α-estradiol 10^-8 M: 2.7 fold
fold induction of the BRET signal over vehicle control, with E2 10^-9 M: 2.7 fold
fold induction of the BRET signal over vehicle control, with bisphenol A 10^-5 M: 5.7 fold
fold induction of the BRET signal over vehicle control, with diethylhexyl phthalate: 2.3 fold
B1: human estrogen receptor-alpha (ERα) fused at its N-terminus with NanoLuc luciferase (Nluc-ERα) or HaloTag (HT-ERα), P03372 1-595 (receptor)
chain: T1 chain
modifications: here or on the partner: HaloTag NanoBRET 618 ligand on the HaloTag of the acceptor copy; HaloTag NanoBRET 618 ligand on the HaloTag of the acceptor copy
